From US20100279930A1 (published 2010)
Read-outs that look alike come from different tables or passages of the source. No end group written: not given here.

Tests used:
human Y4 receptor [1] = target: T1, human Y4 receptor (human, UniProt P50391 1-375); assay: 125I-PP displacement
human Y4 receptor [2] = target: T1, human Y4 receptor; assay: 125I-PP displacement; remark: listed apart in the source

T1 sequence (P50391 whole entry): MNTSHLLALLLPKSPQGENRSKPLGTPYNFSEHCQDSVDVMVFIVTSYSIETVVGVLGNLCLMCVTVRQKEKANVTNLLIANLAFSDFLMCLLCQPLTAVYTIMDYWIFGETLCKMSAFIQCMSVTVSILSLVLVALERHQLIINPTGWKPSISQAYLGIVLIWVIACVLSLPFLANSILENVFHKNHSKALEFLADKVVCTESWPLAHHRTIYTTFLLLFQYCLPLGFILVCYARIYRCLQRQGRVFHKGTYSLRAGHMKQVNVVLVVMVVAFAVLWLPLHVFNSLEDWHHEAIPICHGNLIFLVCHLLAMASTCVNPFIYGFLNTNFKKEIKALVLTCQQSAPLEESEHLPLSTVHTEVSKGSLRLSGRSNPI

Row | IC50 (human Y4 receptor [1]) [nM] | IC50 (human Y4 receptor [2]) [nM] | Binder
1 | 0.16 | – | AAPLEPFYPGDDATPQQIAHYAAELRRYINTLTRPRY [7148]
2 | 0.216 | – | AAPLEPFYPGDDATPQQMAHYAAELRRYINMLTRPRY [7144]
3 | 0.17 | – | AAPLEPVYPGDDATPQQMAQYAAELRRYINMLTRPRY [6866]
4 | 0.148 | – | AAPLEPFYPGDDATPQQMAHYAAELRRYINTLTRPRY [7147]
5 | 0.146 | – | AAPLEPVYPGDNATPEQMAHYAAELRRYINTLTRPRY [7158]
6 | 0.149 | – | HAPLEPFYPGDDATPQQMAHYAAELRRYINMLTRPRY [7146]
7 | 0.15 | – | AAPLEPVYPGDNATPEQMAQYAADLRRYINKLTRPRY (ends and bridges not checked) [compound of SEQ ID NO:171 (code 7218)]
8 | 0.22 | – | DAPLEPVYPGDNATPEQMAQYAADLRRYINKLTRPRY [7219]
9 | 0.066 | – | PAPLEPVYPGDNATPEQMAQYAAALRRYINKLTRPRY [7217]
10 | 0.057 | – | AAPLEPVYPGDNATPEQMAQYAAALRRYINKLTRPRY [compound of SEQ ID NO:168 (Ala 0, Ala 23 and Lys 30, code 7215)]
11 | 0.351 | – | CAPLEPVYPGDNATPEQMAQYAADLRRYINCLTRPRY [7117]
12 | 0.188 | – | PAPLEPFYPGDNATPEQMAHYAADLRRYINTLTRPRY [7143]
13 | 0.1 | – | PAPLEPVYPGDNATPEQMAQYAADLRRYINKLTRPRY [7220]
14 | 0.219 | – | GAPLEPVYPGDNATPEQMAHYAAELRRYINMLTRPRY [7162]
15 | 0.188 | – | PAPLEPVYPGDNATPEQMAHYAAELRRYINMLTRPRY [7161]
16 | 0.109 | – | DAPLEPVYPGDNATPEQMAQYAAALRRYINKLTRPRY [7216]
17 | 0.223 | – | APLEPVYPGDNATPEQNLAHYAAELRRYINMLTRPRY [7164]
18 | 0.069 | – | PLEPVYPGDNATPEELVKYYSALRRYINMLTRPRY [7101]
19 | – | 0.044 | AAPLEPHYPGDNATPEQMARYYSELRRYINKLTRPRY [4059955]
20 | 0.095 | – | AAPLEPVYPGDNATPEELVKYYSALRRYINLLTRPRY [7112]
21 | 0.114 | – | GAPLEPVYPGDNATPEELVKYYSALRRYINMLTRPRY [7102]
22 | 0.225 | – | PAPLEPVYPGDNATPEELVKYYSALRHYINMLTRPRY [7104]

Row | IC50 (human Y4 receptor [1]) [nM] | IC50 (human Y4 receptor [2]) [nM] | Binder
23 | 0.09 | – | PAPLEPVYPGDNATPEEINHYYSALRRYINMLTRPRY [7123]
24 | 0.118 | – | APLEPVYPGDNATPEEINHYYSALRRYINMLTRPRY [7122]
25 | 0.077 | – | APLEPVYPGDNATPEELVKYYSALRRYINLLTRPRY [7111]
26 | 0.2 | – | APLEPVYPGDNATPEELVKYYSALRHYINMLTRPRY [7103]
27 | 0.1 | – | APLEPVYPGDNATPEEIVHYFIELRRYINMLTRPRY [7125]
28 | 0.173 | – | PAPLEPVYPGDDATPQEIVHYFIELRRYINTLTRPRY [7133]
29 | 0.072 | – | PAPLEPVYPGDDATPQQMAHYYSELRRYINMLTRPRY [7137]
30 | 0.137 | – | HAPLEPVYPGDDATPQQMAHYYSELRRYINMLTRPRY [7139]
31 | 0.13 | – | AAPLEPVYPGDDATPQQMAHYYSELRRYINMLTRPRY [7138]
32 | 0.229 | – | APLEPVYPGDNATPEQMAQYAADLRRYINCLTRPRY [7115]
33 | 0.183 | – | APLEPVYPGDDATPEQMAHYAAELRRYINMLTRPRY [7165]
34 | 0.089 | – | APLEPKYPGDNATPEQMAQYAAALRRYINKLTRPRY [7231]
35 | 0.21 | – | APLEPKYPGDNATPEQMAQYAAALRRYINMLTRPRY [7230]
36 | 0.15 | – | APLEPVYPGDNATPEQMAHYAAELRRYINMLTRPRY [7160]
37 | 0.25 | – | PAPLEPVYPGDNATPEELVKYYASLRHYINMLTRPRY [7108]
38 | 0.18 | – | APLEPVYPGDDATPQQIAHYYSELRRYINMLTRPRY [7135]
39 | 0.149 | – | APLEPVYPGDDATPQQMAHYYSELRRYINMLTRPRY [7136]
40 | 0.119 | – | APLEPEYPGDDATPQQMAHYAAELRRYINMLTRPRY [7149]
41 | 0.31 | – | APLEPVYPGDNATPEEIVKYFIELRRYINMLTRPRY [7124]
42 | 0.083 | – | APLEPVYPGDNATPEELVKYYASLRRYINMLTRPRY [7109]
43 | 0.146 | – | APLEPVYPGDNATPEELVKYAAELRRYINMLTRPRY [7163]
